Assay results taken from the RNAGym collection of RNA variant scans (doi:10.1073/pnas.2313332121).

B1: TPR t1 (parent)
chain: GACCAAUCUGCCCUCAGAGCUCGAGAACAUCUUCGGAUGCAGAGGAGGCAGGCUUCGGUGGCGCGAUAGCGCCAACGUCCUCAACCUCCAAUGCAUCCCACCACAUGAUGAUGCCUGAAGAGCCUUGGUUUUUUG

Variants of: B1
Test: polymerase ribozyme fitness, log enrichment relative to wild type (log ratio); higher = more active; in vitro selection for triplet polymerase activity
How it was run: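 Mutant libraries of each subunit of a heterodimeric triplet polymerase ribozyme were built by PCR and transcribed. Each library went through one round of in vitro selection in triplicate: annealing with biotinylated primer, partner subunit and triplets, frozen incubation at −7 °C, gel excision of extended constructs, streptavidin-bead capture and RT-PCR. Input and output libraries were Illumina-sequenced; only genotypes with ≥10 input reads and ≥1 read per output were kept. Fitness is log2(genotype enrichment/wild-type enrichment), using inverse-variance-weighted replicate averages.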

| Variant | polymerase ribozyme fitness (log ratio) |
| --- | --- |
| GACCAAUCAGCCCUCAGAGCUCGAGAACAUCUUCGGAUGCAGAGGAGGCAGGCUUCGGUGGCGCGAUAGCGCGAACGUCCUCAACCUCCAAUGCAUCCCACCACAUGAUGAUGCCUGAAGAGCCUUGGUUUUUUG [U9A C73G] | -0.255 |
| GACCAAUCAGCCCUCAGAGCUCGAGAACAUCUUCGGAUGCAGAGGUGGCAGGCUUCGGUGGCCCGAUAGCGCCAACGUCCUGAACAUCCAAUGCAUCCCACCACAUGAUGAUGCCUGAAGAGCCUUGGUUUUUUG [U9A A46U G63C C82G C86A] | -1.25 |
| GACCAAUCAGCCCUCAGAGCUCGAGAACAUCUUCGGAUGCAGAGGAGGCAGGCUUCGGUGGCGCGAUAGCGCGAACGUCCUCAACCUCCAAUGCAUCCCACCACAUGAUGAUGCCUAAAGAGCCUUGGUUUUUUG [U9A C73G G117A] | 0.428 |
| GACCAAUCAGCCCUCAGAGCUCGAGAACAUCUUCGGAUGCAGAGGAGGCAGGCUUCGGUGGCGCGAUAGCGCCAUCGUCCUCAACCUCCAAUGCAGCCCACCACAUGAUGAUGCCUGAAGAGCCUUGGUUUUUUG [U9A A75U U96G] | -0.383 |
| GACCAAUCACCCUUCAGAGCUCGAGAACAUCUUCGGAUGAAGAGGAGGCAGGCUUCGGUGGCGCGAUAGCGCCAACGUCAUCAACCUCCAAUGCAUCCCACCACAUGAUGAUGCCUGAAGAACCUUGGUUUUUUG [U9A G10C C13U C40A C80A G122A] | -3.43 |
| GACCAAUCAGCCCUCAGAGCUCGAGAACAUCUUCGGAUGCAGAGGAGGCAGGCUUCGGUGGCGCGAUAGCGCCAACGUCCUCAACCUCGUAUGCAUCCCACCACAUGAUGAUGCCUGAAGAGCCUUGGUUUUUUG [U9A C89G A90U] | -0.63 |
| GACCAAUCAGCCCUCAGAGCUCGAGAACAUCUUCGGAUGCAGAGUAGGCAGGCUUCGGUGGCGCGAUAGCGCUAACGUCCUCAACCUCCAAUGCAUCUCACCACAUGAUGAUGCCUGAAGAGCCUUGGUUUUUUG [U9A G45U C73U C98U] | -0.532 |
| GACCAAUCAGCCCUCAGAGCUCGAGAACAUCUUUGGCUGCAGAGGUGGCAGGCUUUGGUGGCGCGAUAGCGCCAACGUCCUCAACCUCCAAUGCAUCCCACCACAUCAUGAUGUCUGAAGAACCUUCGUUUUUUG [U9A C34U A37C A46U C56U G107C C114U G122A G127C] | -7.05 |
| GACCAAUCAGCCCUCAGAGCUCGAGAACAUCUUCGAAUGCAGAGGAGGCAGGCUUCGGUGGCGCGAUAGCGCCAACGUCCUCAACCUCCAAUGCAUCCCACCACAUGAUGAUACCUGAAGAGCCUUGGUUUUUUG [U9A G36A G113A] | -0.728 |
| GACCAAUCAGCCUUCAGAGCUCGAGAACAUCUUCGGAUGCAGAGGAGGCAGGCUUCGGUGGCGCGAUAGCGCCAACGUUCUCAACCUCCAAUGCAUCCCACCACAUGAUGAUGACUGAAGAGCCUUGGUUUUUUG [U9A C13U C79U C114A] | 0.44 |
| GACCAAUCAGCCCUCAGAGCUCGAGAACAUCUUCGGAUGCAAAGGAGGCAGGCUUCGGUGGCGCGAUAGCGCCAACGUCCUCAACCCCCAAUGCAUCCCAACACAUGAUGAUGCCUGAAAAGCCUUGGUUUUUUG [U9A G42A U87C C101A G120A] | -1.63 |
| GACCAAUCAGCCCUCAGAGCUCGAGAACAUCUUCGGAUGCAGAAGAGGCAGGCUUCGGUGGCGCGAUAACGUCAACGUCCUCAACCCCCAAUGCAUCCCACCACAUGAUGAUGCCUGAAGAGCCUUGGUUUUUUG [U9A G44A G69A C72U U87C] | -3.54 |
| GACCAAUCAGCCCUCAGAGCUCGAGAACAUCUUCGGAUGCAGAGGAGGCAGGCUUCGGUGGCGCGAUAGCGCCAACGUCCUCUACCUCCAAUGCAUCCCACCACAUGAUGAUGCCUGAAGAGCCUUGGUUUUUUG [U9A A83U] | 0.0435 |
| GACCAAUCAGCCCUCAGAGCUCGAGAACAUCUUCGGAUGCAGAGGAGGCAGGCUUCGGUGGCGCGAUAGCGCCAACGUCCUCAACGUCCAAUGCAUCCCACCACAUGAUGAUGCCUGAAGAGCCUUGGUUUUUUG [U9A C86G] | 0.0417 |
| GACCAAUCAGCCCUCAGAGCUUGAGAACAUCUUCGGAUGCAGAGGAGGCAGGCUUCGGUGGCGCGAUAGCGCCAACGUCCUCAACCUCCAAUGCAUCCCACCACAUGAUGAUGCCUGAAGAGCCUUGGUUUUUUG [U9A C22U] | -3.34 |
| GACCAAUCAGCGCUCAGAGCUCGAGAACAUCUUCGGAUGCAGAGGAGGCAGGCUUCGGUGGCGCGAUAGCGCCAACGUCCUCAACCGCCAAUGCAUCCUACCACAUGAUGAUGCCUGAAGAGCCUUGGUUUUUUG [U9A C12G U87G C99U] | -2.31 |
| GACCAAUCAGACCUCAGAGCUCGAGAACAUCUUCGGAUGCAGAGGAGGCAGGCUUCGGUGGCGCGAUAGUGCCAACGUCCUCAAUCUCCAAUGCAUCCCACCACAUGAUGAUGCCUGAAGAGCCUUGGUUUUUUG [U9A C11A C70U C85U] | -1.15 |
| GACCAAUCAGCCGUCAGAGCUCGAGAACAUCAUCGGAUCCUGAGGAGGCAGGCUUCGGUCGCGCGAUAGCGCCAACGUCCUCAACCUUCAAUGCAUCCCACCACAUGAUGAUGCCUAAAGAGCCUUGGUUUUUUG [U9A C13G U32A G39C A41U G60C C88U G117A] | -7.75 |
| GACCAAUCAGCCUUCAGAGCUCGAGAACAUCUUCGGAUGCAGAGGAGGCAGGCUUCGGUGGCGCGAUAGCGCCAACGUCCUCAACCUCCAAAGCAUCCCAACACAUGAUGAUGCCUGAAGAGCCUUGGUUUUUUG [U9A C13U U92A C101A] | -4.36 |
| GACCAAUCAGCCCUCAGAGCUCGAGAACAUCUUCGGAUGCAAAGGAGGCAGGCUUCUGUGGCGCGAUAGCGCCAACGUCCUCAACCUCCAAUGCAUCCCACCACAUGAUGAUGCAUGAAGAGCCUUUGUUAUUUG [U9A G42A G57U C115A G127U U131A] | -3.74 |
| GACCAAUCAGCCUUCAGAGCUCGAGAACAUCUUCGGAUGCAGAGGAGGCAGGCUUCGGUGGCACGAUAGCGCCAACGUCCUCAACCUACAAUGCAUCCCACCACAUGAUGAUCCCUGAAGAGCCUUGGGUUUUGG [U9A C13U G63A C88A G113C U129G U134G] | -3.06 |
